These results are taken from publication PMC4817256.

This assay has as its target eukaryotic translation initiation factor 4E (human (endogenous in U2OS and HeLa)) (UniProt P06730). As to the kind of experiment: proximity ligation.
Sequence of UniProt P06730 (P06730 whole entry): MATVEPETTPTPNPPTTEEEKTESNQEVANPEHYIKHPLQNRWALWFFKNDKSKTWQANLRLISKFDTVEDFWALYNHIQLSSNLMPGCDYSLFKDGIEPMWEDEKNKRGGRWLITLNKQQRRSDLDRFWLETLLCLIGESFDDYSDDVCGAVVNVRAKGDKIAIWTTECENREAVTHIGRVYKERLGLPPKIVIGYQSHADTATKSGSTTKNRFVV

For HIV-1 Gag-GFP (natural protein), the PLA dots per cell (dots per cell) amounted to 6.98.
